Data: publication PMC11722011, “NMR Studies on the Structure of Yeast Sis1 and the Dynamics of Its Interaction with Ssa1-EEVD” (Molecules, 2024)
Blank lines part the entries; values can stand above or below the binder they belong to. Ends that are not written are not given here.

Legend:
Conditions in all cases: both partners purified
[1] = target: T1, full-length Sis1 (residues 1–352), Sis1_(1–352) (S. cerevisiae, UniProt P25294 1-352); test: NMR titration; paramagnetic relaxation enhancement: Sis1(1-352) with TEMPO-labeled EEVD peptide, TROSY spectra, paramagnetic against diamagnetic (reduced with ascorbate) intensity ratio
T1 construct: Sis1, class B J-domain protein of S. cerevisiae, residues 1-352 (352 residues long); J-domain 1-72, GF 73-121, GM 122-178, CTDI 179-257, CTDII 258-335, dimerization domain 336-352; 15N- or 2H/15N-labelled; also called 15N-Sis1_(1–352); 2H-15N-Sis1_(1–352)
T1 sequence (looked up): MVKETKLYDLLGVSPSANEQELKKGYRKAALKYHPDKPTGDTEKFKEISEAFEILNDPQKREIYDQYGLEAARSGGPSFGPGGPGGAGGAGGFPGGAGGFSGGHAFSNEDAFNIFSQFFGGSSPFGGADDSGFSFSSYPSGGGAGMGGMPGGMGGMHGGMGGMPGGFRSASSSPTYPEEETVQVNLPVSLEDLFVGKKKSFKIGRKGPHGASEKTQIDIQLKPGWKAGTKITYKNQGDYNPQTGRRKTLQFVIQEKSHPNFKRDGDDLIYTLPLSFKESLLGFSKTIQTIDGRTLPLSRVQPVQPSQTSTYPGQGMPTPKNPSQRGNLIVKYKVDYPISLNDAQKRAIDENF

[2] = target: T2, Sis1_(1–81), J-domain of Sis1 (residues 1–81) (S. cerevisiae, UniProt P25294 1-81); test: NMR titration; paramagnetic relaxation enhancement: 15N-Sis1(1-81) titrated with TEMPO-labeled …, 1H-15N HSQC at 900 MHz; diamagnetic sample after reduction with 3 mM ascorbic acid; intensity ratio Ipara/Idia
T2 construct: Sis1, class B J-domain protein of S. cerevisiae, residues 1-81: J-domain (1-72) and part of the GF region (73-81); 15N-labelled for HSQC, 13C/15N-labelled for the structure; also called 15N-Sis1_(1–81)
T2 sequence (looked up): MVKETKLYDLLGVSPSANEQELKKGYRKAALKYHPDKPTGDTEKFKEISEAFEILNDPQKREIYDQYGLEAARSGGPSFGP

[3] = target: T1, full-length Sis1 (residues 1–352), …; test: NMR titration; 1H-15N TROSY of 0.3 mM 15N-Sis1(1-352) free and with GPTIEEVD (1:4 protein:peptide), CSP; 25 mM Tris-HCl pH 7.5, 200 mM NaCl, 10% D2O, 303 K

- binding result [1]: binds
- binding result [2]: binds
B1: TEMPO-labeled CGPTIEEVD peptide (TEMPO-EEVD) (peptide)
peptide: C(4‑maleimide‑TEMPO)GPTIEEVD
notes: N-terminal cysteine that carries the spin label; also called spin-labeled EEVD; paramagnetic EEVD peptide; source: synthetic peptide (GenOne Biotechnologies), labelled with 4-maleimide-TEMPO, HPLC (C18) purified

- binding result [3]: binds
B2: GPTIEEVD peptide (EEVD peptide, C-terminal motif of HSP70/Ssa1) (peptide)
peptide: GPTIEEVD
notes: also called Ssa1-EEVD; source: synthetic peptide (GenOne Biotechnologies, Rio de Janeiro)
